Reference: patent US20250041437A1, “HUMANIZED MUC1 ANTIBODY AND ANTIBODY DRUG CONJUGATE” (Sun Pharma Advanced Research Company Limited, priority 2023, published 2025)

T1: recombinant human MUC1-SEA (Homo sapiens, UniProt P15941)
T1 construct: on recombinant human MUC1-SEA on SPR; purchased Acrobiosystems MU1-H52H9
T1 sequence (P15941 1039-1148 limits assumed): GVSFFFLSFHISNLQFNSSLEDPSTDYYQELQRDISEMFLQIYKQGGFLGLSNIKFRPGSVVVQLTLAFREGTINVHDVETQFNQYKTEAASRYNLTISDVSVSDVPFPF

T2: MUC1-X-FL-1116 (R1108A, E1109A, N1113A, D1116A) (Homo sapiens, UniProt P15941, D1116A/E1109A/N1113A/R1108A)
T2 construct: wild-type MUC1-X extracellular domain (MUC1-X-FL-WT); His (implied by Ni-NTA purification; pET30a(+) vector); made in house; host or cells: E. coli (pET30a(+))
T2 sequence (P15941 24-115 isoform P15941-8 limits assumed): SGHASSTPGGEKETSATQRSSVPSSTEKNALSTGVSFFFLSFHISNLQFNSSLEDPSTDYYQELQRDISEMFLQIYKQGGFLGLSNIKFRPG
T2 sequence (P15941 1098-1158 R1108A/E1109A/N1113A/D1116A limits assumed): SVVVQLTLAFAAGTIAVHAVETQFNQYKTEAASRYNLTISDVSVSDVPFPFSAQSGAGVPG

T3: MUC1-X-FL-1118 (R1108A, E1109A, N1113A, E1118A) (Homo sapiens, UniProt P15941, E1109A/E1118A/N1113A/R1108A)
T3 construct: wild-type MUC1-X extracellular domain (MUC1-X-FL-WT); His (implied by Ni-NTA purification; pET30a(+) vector); made in house; host or cells: E. coli (pET30a(+))
T3 sequence (P15941 24-115 isoform P15941-8 limits assumed): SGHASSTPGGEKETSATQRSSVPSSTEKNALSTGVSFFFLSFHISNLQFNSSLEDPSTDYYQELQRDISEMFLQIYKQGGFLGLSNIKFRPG
T3 sequence (P15941 1098-1158 R1108A/E1109A/N1113A/E1118A limits assumed): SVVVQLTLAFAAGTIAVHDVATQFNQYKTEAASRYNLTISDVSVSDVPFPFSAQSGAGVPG

B1: HM3 LM3: variant of SP66; VH HM3 SEQ ID NO: 9, VL LM3 SEQ ID NO: 14 (antibody, V domains shown)
VH: EIQLVQSGAEVKKPGSSVKVSCKVTGHSITRGSSWHWMRQAPGQGLEWIGYIHYGGGTSYNPSLKSRATLTRDTSTNTAYMELSSLRSEDTAFYFCARYSYDITYRWFFDVWGQGTLVTVSS
VL: DIQMTQSPSTLSASVGDRVTITCRASQNIGTSIHWYQQKPGKAPKLLIKYASESISGVPSRFSGSGSGTEFTLTISSLQPDDFATYYCQQNNNWPLTFGQGTKVEVK
B2: HM4 LM3: variant of SP66; VH HM4 SEQ ID NO: 10, VL LM3 SEQ ID NO: 14 (antibody, V domains shown)
VH: EIQLVQSGAEVKKPGSSVKVSCKVTGHSITRGSSWHWMRQAPGQGLEWIGYIHYGGGTSYNPSLKSRATLTRDTSTNTFYMELSSLRSEDTAFYFCARYSYDITYRWFFDVWGQGTLVTVSS
VL: DIQMTQSPSTLSASVGDRVTITCRASQNIGTSIHWYQQKPGKAPKLLIKYASESISGVPSRFSGSGSGTEFTLTISSLQPDDFATYYCQQNNNWPLTFGQGTKVEVK
B3: HM3 LM2: variant of SP66; VH HM3 SEQ ID NO: 9, VL LM2 SEQ ID NO: 13 (antibody, V domains shown)
VH: EIQLVQSGAEVKKPGSSVKVSCKVTGHSITRGSSWHWMRQAPGQGLEWIGYIHYGGGTSYNPSLKSRATLTRDTSTNTAYMELSSLRSEDTAFYFCARYSYDITYRWFFDVWGQGTLVTVSS
VL: DIQMTQSPSTLSASVGDRVTITCRASQNIGTSIHWYQQKPGKAPKLLIKRASESISGVPSRFSGSGSGTEFTLTISSLQPDDFATYYCQQNNNWPLTFGQGTKVEVK
B4: HM4 LM2: variant of SP66; VH HM4 SEQ ID NO: 10, VL LM2 SEQ ID NO: 13 (antibody, V domains shown)
VH: EIQLVQSGAEVKKPGSSVKVSCKVTGHSITRGSSWHWMRQAPGQGLEWIGYIHYGGGTSYNPSLKSRATLTRDTSTNTFYMELSSLRSEDTAFYFCARYSYDITYRWFFDVWGQGTLVTVSS
VL: DIQMTQSPSTLSASVGDRVTITCRASQNIGTSIHWYQQKPGKAPKLLIKRASESISGVPSRFSGSGSGTEFTLTISSLQPDDFATYYCQQNNNWPLTFGQGTKVEVK
B5: HM5 LM3: variant of SP66; VH HM5 SEQ ID NO: 11, VL LM3 SEQ ID NO: 14 (antibody, V domains shown)
VH: EIQLVQSGAEVKKPGSSVKVSCKVTGHSITRGSSWHWMRQAPGQGLEWIGYIHYGGGTSYNPSLKSRITITRDTSTNTFYMELSSLRSEDTAFYFCARYSYDITYRWFFDVWGQGTLVTVSS
VL: DIQMTQSPSTLSASVGDRVTITCRASQNIGTSIHWYQQKPGKAPKLLIKYASESISGVPSRFSGSGSGTEFTLTISSLQPDDFATYYCQQNNNWPLTFGQGTKVEVK
B6: HM2 LM3: variant of SP66; VH HM2 SEQ ID NO: 8, VL LM3 SEQ ID NO: 14 (antibody, V domains shown)
VH: EIQLVQSGAEVKKPGSSVKVSCKVTGHSITRGSSWHWMRQAPGQGLEWIGYIHYGGGTSYNPSLKSRITITRDTSTNTAYMELSSLRSEDTAFYFCARYSYDITYRWFFDVWGQGTLVTVSS
VL: DIQMTQSPSTLSASVGDRVTITCRASQNIGTSIHWYQQKPGKAPKLLIKYASESISGVPSRFSGSGSGTEFTLTISSLQPDDFATYYCQQNNNWPLTFGQGTKVEVK
B7: HM5 LM2: variant of SP66; VH HM5 SEQ ID NO: 11, VL LM2 SEQ ID NO: 13 (antibody, V domains shown)
VH: EIQLVQSGAEVKKPGSSVKVSCKVTGHSITRGSSWHWMRQAPGQGLEWIGYIHYGGGTSYNPSLKSRITITRDTSTNTFYMELSSLRSEDTAFYFCARYSYDITYRWFFDVWGQGTLVTVSS
VL: DIQMTQSPSTLSASVGDRVTITCRASQNIGTSIHWYQQKPGKAPKLLIKRASESISGVPSRFSGSGSGTEFTLTISSLQPDDFATYYCQQNNNWPLTFGQGTKVEVK
B8: HM2 LM2: variant of SP66; VH HM2 SEQ ID NO: 8, VL LM2 SEQ ID NO: 13 (antibody, V domains shown)
VH: EIQLVQSGAEVKKPGSSVKVSCKVTGHSITRGSSWHWMRQAPGQGLEWIGYIHYGGGTSYNPSLKSRITITRDTSTNTAYMELSSLRSEDTAFYFCARYSYDITYRWFFDVWGQGTLVTVSS
VL: DIQMTQSPSTLSASVGDRVTITCRASQNIGTSIHWYQQKPGKAPKLLIKRASESISGVPSRFSGSGSGTEFTLTISSLQPDDFATYYCQQNNNWPLTFGQGTKVEVK
B9: chi 5F3: chimeric anti-MUC1 SEA antibody of WO 2021/186427; variable regions SEQ ID NOs: 42 and 43; parent of the humanized antibodies (antibody, V domains shown)
VH: MRVLILLCLFTAFPGVLSDVQVQESGPDLVKPSQSLSLTCTVTGHSITRGSSWHWIRQFPGNKLEWMGYIHYGGGTSYNPSLKSRISITRDTSKNQFFLQLNSVTTEDTATFFCARYSYDITYRWFFDVWGAGTTVIVSS
VL: MVSTPQFLVFLLFWIPASRGDILLTQSPAILSVSPGERVSFSCRASQNIGTSIHWYQQRKNGSPRLLIKYASESISGIPSRFSGSGSGTDFTLSINSVESEDMADYYCQQNNNWPLTFGAGTKLELK
notes: chimeric anti-MUC1 SEA antibody of WO 2021/186427; parent of the humanized antibodies

Tests used:
[1] = target: T1, recombinant human MUC1-SEA; assay: Binding strength by Surface Plasmon Resonance (SPR); details: Table 2, variants of humanized anti-MUC1 5F3 mAb
Procedure: Binding strength assessment using Surface Plasmon Resonance (SPR): MUC1 antigen (Acrobiosystems, Cat: MU1-H52H9) was captured on the anti-His immobilized on CM5 chip at 5 μl/min flow rate for 60 s. Post this concentration range of 0-50 nM of antibody or ADC is passed over MUC1 antigen at a flow rate of 30 μl/min flow rate for 120 s, keeping dissociation time of 1800 s at 25°. The dose response generated is evaluated on BIAevaluation software for the calculation of affinity of antibody to antigen as measured by dissociation constant (KD).

[2] = target: T2, MUC1-X-FL-1116 (R1108A, E1109A, N1113A, D1116A); assay: Epitope mapping ELISA, mutant MUC1-X-FL-1116; format: binding; details: mutation at position 1116
[3] = target: T3, MUC1-X-FL-1118 (R1108A, E1109A, N1113A, E1118A); assay: Epitope mapping ELISA, mutant MUC1-X-FL-1118; format: binding; details: mutation at position 1118

Molecule	ka [1] [M⁻¹ s⁻¹]	binding to MUC1 mutant (in words) [2]	binding to MUC1 mutant (in words) [3]
B1	4.47e+07		
B2	2.88e+06		
B3	2.65e+06		
B4	4.08e+06		
B5	3.97e+06		
B6	3.14e+06		
B7	4.8e+06		
B8	1.77e+06		
B9	4.39e+06	maintained	lost
